± gives the uncertainty stated by the source.
B1: Arginine-glutamic acid dipeptide repeats protein, residues 502 to 543; numbered along this chain, Q9P2R6 (parent)
chain: LKGYACRHCFTTTSKDWHHGGRENILLCTDCRIHFKKYGELP

Variants of: B1
Assay: abundance fitness (aPCA) (normalised: wild type 0, dead -1); higher = more abundant; growth selection in yeast, the domain comes from the species named
Conditions: Homo sapiens

Abundance fitness of substitutions, site by site:
G20: Y -0.422 ± 0.36; Q -0.179 ± 0.059; A -0.16 ± 0.036; K -0.379 ± 0.06; P -0.375 ± 0.072; W -0.141 ± 0.051; M -0.205 ± 0.042; H -0.203 ± 0.048; D 0.097 ± 0.067; I -0.151 ± 0.053; S -0.212 ± 0.043; V -0.11 ± 0.035; C -0.091 ± 0.057; T -0.292 ± 0.14; E -0.066 ± 0.036; L -0.32 ± 0.056; R -0.45 ± 0.038
D16: Q -0.449 ± 0.062; L -0.442 ± 0.037; P -0.701 ± 0.08; S -0.263 ± 0.049; H -0.501 ± 0.093; F -0.48 ± 0.081; C -0.633 ± 0.47; M -0.397 ± 0.039; W -0.515 ± 0.042; G -0.342 ± 0.038; Y -0.555 ± 0.079; N -0.277 ± 0.064; T -0.391 ± 0.06; R -0.451 ± 0.038; A -0.358 ± 0.038; V -0.412 ± 0.036; K -0.154 ± 0.049; E -0.15 ± 0.041
S14: W -0.657 ± 0.058; V -0.476 ± 0.047; M -0.455 ± 0.098; R -0.451 ± 0.034; K -0.066 ± 0.12; L -0.536 ± 0.038; E -0.223 ± 0.043; T -0.226 ± 0.049; D -0.073 ± 0.11; Y -0.473 ± 0.09; G -0.291 ± 0.035; I -0.454 ± 0.22; P -0.361 ± 0.048; C -0.315 ± 0.068; A -0.228 ± 0.036; F -0.516 ± 0.19
C6: H -0.601 ± 0.075; V -1.12 ± 0.072; S -0.939 ± 0.064; Y -1.05 ± 0.13; Q -0.894 ± 0.069; E -0.702 ± 0.059; R -0.996 ± 0.052; T -0.902 ± 0.08; K -0.886 ± 0.17; L -1 ± 0.072; W -1.28 ± 0.1; G -0.878 ± 0.048; F -1.03 ± 0.12; A -0.969 ± 0.072; M -1.1 ± 0.08
H18: F -0.005 ± 0.046; T -0.029 ± 0.041; Q 0.09 ± 0.064; G 0.057 ± 0.031; I -0.07 ± 0.047; C -0.03 ± 0.055; L -0.042 ± 0.044; S 0.004 ± 0.038; N -0.132 ± 0.051; R -0.193 ± 0.044; A 0.09 ± 0.044; Y -0.089 ± 0.1; W -0.21 ± 0.068; D 0.115 ± 0.13; K 0.055 ± 0.046; P -0.333 ± 0.045
W17: D -0.197 ± 0.075; C -0.295 ± 0.062; R -0.276 ± 0.033; T -0.227 ± 0.053; N -0.276 ± 0.084; S -0.198 ± 0.051; A -0.191 ± 0.036; V -0.157 ± 0.039; Q -0.213 ± 0.053; G -0.154 ± 0.03; P -0.149 ± 0.053; L -0.186 ± 0.036; M -0.195 ± 0.038; K -0.274 ± 0.057
T11: E -0.4 ± 0.047; I -0.204 ± 0.05; K -0.172 ± 0.052; F -0.561 ± 0.43; R -0.236 ± 0.033; C -0.219 ± 0.046; G -0.241 ± 0.032; W -0.589 ± 0.046; M -0.413 ± 0.045; P -0.51 ± 0.066; N -0.168 ± 0.066; S -0.083 ± 0.035; Q -0.278 ± 0.046; Y -0.607 ± 0.066; V -0.195 ± 0.036; A -0.136 ± 0.035; D -0.277 ± 0.068; L -0.375 ± 0.043
G3: S -0.107 ± 0.048; T -0.093 ± 0.045; W -0.391 ± 0.051; A -0.047 ± 0.039; V -0.218 ± 0.034; C -0.226 ± 0.062; P -0.189 ± 0.036; L -0.205 ± 0.038; E -0.2 ± 0.053; Q -0.373 ± 0.067; F -0.247 ± 0.084; H -0.058 ± 0.065; K -0.146 ± 0.065; R -0.135 ± 0.034; M -0.111 ± 0.14; I -0.246 ± 0.053; Y -0.205 ± 0.28
R7: F -0.185 ± 0.1; W -0.195 ± 0.039; I -0.188 ± 0.15; L -0.067 ± 0.035; D -0.142 ± 0.097; K 0.087 ± 0.043; P -0.293 ± 0.043; S 0.021 ± 0.037; N -0.115 ± 0.059; A 0.074 ± 0.036; Y -0.056 ± 0.045; V -0.098 ± 0.034; M -0.02 ± 0.042; H -0.441 ± 0.19; E 0.064 ± 0.052; G 0.029 ± 0.031; Q 0.036 ± 0.053
A5: N -0.116 ± 0.17; M -0.046 ± 0.058; C 0.032 ± 0.058; W 0.014 ± 0.037; K -0.104 ± 0.055; G 0.012 ± 0.035; T 0.04 ± 0.043; H 0.044 ± 0.059; F 0.144 ± 0.059; L -0.018 ± 0.036; D -0.022 ± 0.072; Q 0.039 ± 0.04; V -0.039 ± 0.039; P -0.335 ± 0.053; S 0.007 ± 0.041; R 0.012 ± 0.035; Y -0.136 ± 0.088
T13: R 0.012 ± 0.036; C -0.164 ± 0.058; F -0.179 ± 0.11; A -0.054 ± 0.032; V -0.125 ± 0.04; E 0.014 ± 0.047; Q -0.039 ± 0.058; N -0.043 ± 0.1; Y -0.223 ± 0.17; W -0.31 ± 0.044; I -0.282 ± 0.08; K 0.018 ± 0.052; L -0.223 ± 0.054; M -0.185 ± 0.058; H -0.045 ± 0.079; P -0.484 ± 0.066
F10: A 0.054 ± 0.032; P -0.279 ± 0.071; V -0.331 ± 0.035; L -0.068 ± 0.035; R -0.014 ± 0.032; T -0.099 ± 0.045; I -0.352 ± 0.085; M -0.083 ± 0.048; K 0.017 ± 0.041; W -0.054 ± 0.036; Y -0.101 ± 0.063; D -0.08 ± 0.039; H 0.134 ± 0.094; Q 0.03 ± 0.044; C -0.036 ± 0.051; N -0.238 ± 0.058; S 0.015 ± 0.048
L1: W -0.187 ± 0.057; F 0.014 ± 0.049; G 0.043 ± 0.037; T 0.066 ± 0.06; I 0.149 ± 0.1; S -0.003 ± 0.037; M 0.076 ± 0.038; Q -0.245 ± 0.16; A 0.158 ± 0.23; R -0.083 ± 0.34; V 0.054 ± 0.047
H19: G -0.073 ± 0.033; W -0.204 ± 0.044; C -0.033 ± 0.083; T 0.095 ± 0.042; D -0.225 ± 0.13; S -0.026 ± 0.035; A -0.048 ± 0.035; R -0.047 ± 0.034; I -0.045 ± 0.054; K -0.047 ± 0.061; P -0.046 ± 0.043; F -0.064 ± 0.057; E 0.02 ± 0.04; Y -0.246 ± 0.1; M 0.008 ± 0.048
K2: L -0.196 ± 0.049; W -0.401 ± 0.066; A -0.116 ± 0.056; S -0.049 ± 0.048; D -0.004 ± 0.047; H -0.374 ± 0.078; I -0.241 ± 0.094; R -0.153 ± 0.034; F -0.078 ± 0.083; M -0.09 ± 0.049; Y -0.477 ± 0.08; P -0.357 ± 0.057; E -0.038 ± 0.05; G -0.12 ± 0.041; N -0.046 ± 0.048; Q -0.107 ± 0.041; V -0.023 ± 0.038; T -0.367 ± 0.43
C9: S -0.392 ± 0.073; D -0.547 ± 0.061; V -0.451 ± 0.048; K -0.371 ± 0.094; A -0.425 ± 0.043; P -0.494 ± 0.051; N -0.271 ± 0.12; Y -0.426 ± 0.087; E -0.318 ± 0.041; W -0.645 ± 0.061; R -0.493 ± 0.037; G -0.455 ± 0.038; T -0.44 ± 0.043; L -0.517 ± 0.042; M -0.542 ± 0.063
Y4: V -0.181 ± 0.039; Q -0.273 ± 0.044; W -0.22 ± 0.04; T -0.074 ± 0.063; K -0.178 ± 0.055; I -0.089 ± 0.22; L -0.109 ± 0.039; A -0.198 ± 0.039; H -0.084 ± 0.057; C -0.117 ± 0.053; G -0.207 ± 0.032; S -0.075 ± 0.038; D -0.037 ± 0.048; P -0.257 ± 0.047; R -0.155 ± 0.036; N 0.165 ± 0.073; E -0.135 ± 0.04; F -0.032 ± 0.087; M 0.046 ± 0.044
K15: I -0.222 ± 0.081; Y -0.229 ± 0.09; W -0.489 ± 0.046; D -0.099 ± 0.1; T -0.002 ± 0.049; N -0.324 ± 0.073; A -0.107 ± 0.041; Q -0.049 ± 0.048; S -0.162 ± 0.034; E 0.007 ± 0.035; V -0.091 ± 0.048; P -0.095 ± 0.049; R -0.053 ± 0.037; G -0.174 ± 0.033; C -0.313 ± 0.045; M -0.064 ± 0.095; H -0.041 ± 0.06
G21: L -0.274 ± 0.037; A -0.142 ± 0.034; H -0.044 ± 0.47; I -0.517 ± 0.23; K -0.377 ± 0.058; E -0.154 ± 0.046; D -0.236 ± 0.066
T12: G -0.312 ± 0.032; R -0.141 ± 0.034; L -0.338 ± 0.039; W -0.669 ± 0.058; K -0.135 ± 0.048; E -0.175 ± 0.051; F -0.314 ± 0.32; Y -0.549 ± 0.14; C -0.304 ± 0.043; M -0.241 ± 0.052; P -0.317 ± 0.043; S -0.205 ± 0.044; D -0.141 ± 0.055; A -0.234 ± 0.038; V -0.343 ± 0.033; Q -0.159 ± 0.049; N -0.251 ± 0.13
H8: I -0.292 ± 0.064; P -0.836 ± 0.11; N 0.064 ± 0.058; M -0.347 ± 0.045; Q -0.307 ± 0.046; L -0.489 ± 0.041; S -0.136 ± 0.046; A -0.189 ± 0.038; E -0.348 ± 0.045; K -0.368 ± 0.058; W -0.044 ± 0.044; F -0.387 ± 0.065; C -0.259 ± 0.052; R -0.229 ± 0.031; Y -0.238 ± 0.36; G -0.222 ± 0.034; T -0.428 ± 0.053

Source: the Human Domainome abundance scans (Beltran et al. 2025)
